The target of test [1] is ZIKV Dakar strain virus (African lineage), E2 antigen on virions (Zika virus).
In test [2] the target is ZIKV Brazil strain virus (Asian lineage), E2 antigen on virions (Zika virus).

This is an account of results in patent US20230085393A1.

B1: ZIKV-120765-491 (antibody, V domains shown)
VH: EVQLVESGGGLVQPGGSLRLSCAASGFTFIRYAMSWVRQAPGKGLEWVSDISGSGGSTFYADSVKGRFTISRDNSKNTLYLQMNSLRAEDTAVYYCARDDEGYTTNWYDAYDIWGQGTMVTVSS
VL: DIQMTQSPSSLSASVGDRVTITCRASQSIGSYLNWYQQRPGKAPKLLIYTASSLQSGVPSRFSGSGSGTDFILTISSLQPEDFATYYCQQNYNIPQVTFGPGTKVDIK
B1: the IC50, RTCA cellular impedance neutralisation assay on Vero cells in test [1] and in test [2] was below 0.1 µg/mL throughout.

B2: ZIKV-120764-350 (antibody, V domains shown)
VH: DVQLVESGGGLIQPGGSLRLSCAASGFTARTNYMTWVRQAPGKGLEWVSVIYSGGSTIYADSVKGRFTISRDNAKNSLYLQMNSLRAEDTAVYYCARDRGYLDHWGQGTLVTVSS
VL: EIVLTQSPATLSLSPGERATLSCRASQSVTNYFAWYQQRPGQAPRLLIYDVSNRATGIPARFSGSGSGTDFTLTISSLEPEDFAVYYCQQRSNWPYTFGQGTKVEIK
For the molecule B2, the IC50, RTCA cellular impedance neutralisation assay on Vero cells in test [1] and in test [2] was below 0.1 µg/mL in each case.
